Tested on: GST-tagged FnbB
Experiment: Pull-down with GST-tagged FnbB, proteins from rabbit reticulocyte translation system
Format: binding, S. aureus
Conditions: cell-free protein translation system; GST alone as negative control
Text: Recombinant proteins were produced from the isolated plasmids from the PPI-partners in a rabbit reticulocyte-based translation system and additionally in E. coli cells. The produced recombinant proteins were used for pull-down and immunoprecipitation experiments.

B1: FLNA: human protein interacting with FnbB, NCBI Protein GI 15779184 (protein)
chain: MPSGKVAQPTITDNKDGTVTVRYAPSEAGLHEMDIRYDNMHIPGSPLQFYVDYVNCGHVTAYGPGLTHGVVNKPATFTVNTKDAGEGGLSLAIEGPSKAEISCTDNQDGTCSVSYLPVLPGDYSILVKYNEQHVPGSPFTARVTGDDSMRMSHLKVGSAADIPINISETDLSLLTATVVPPSGREEPCLLKRLRNGHVGISFVPKETGEHLVHVKKNGQHVASSPIPVVISQSEIGDASRVRVSGQGLHEGHTFEPAEFIIDTRDAGYGGLSLSIEGPSKVDINTEDLEDGTCRVTYCPTEPGNYIINIKFADQHVPGSPFSVKVTGEGRVKESITRRRRAPSVANVGSHCDLSLKIPEISIQDMTAQVTSPSGKTHEAEIVEGENHTYCIRFVPAEMGTHTVSVKYKGQHVPGSPFQFTVGPLGEGGAHKVRAGGPGLERAEAGVPAEFSIWTREAGAGGLAIAVEGPSKAEISFEDRKDGSCGVAYVVQEPGDYEVSVKFNEEHIPDSPFVVPVASPSGDARRLTVSSLQESGLKVNQPASFAVSLNGAKGAIDAKVHSPSGALEECYVTEIDQDKYAVRFIPRENGVYLIDVKFNGTHIPGSPFKIRVGEPGHGGDPGLVSAYGAGLEGGVTGNPAEFVVNTSNAGAGALSVTIDGPSKVKMDCQECPEGYRVTYTPMAPGSYLISIKYGGPYHIGGSPFKAKVTGPRLVSNHSLHETSSVFVDSLTKATCAPQHGAPGPGPADASKVVAKGLGLSKAYVGQKSSFTVDCSKAGNNMLLVGVHGPRTPCEEILVKHVGSRLYSVSYLLKDKGEYTLVVKWGDEHIPGSPYRVVVP
Co-purified with GST-tagged FnbB: could be co-purified

B2: HSPC 118: human protein interacting with FnbB, NCBI Protein GI 6841458 (protein)
chain: MVGGGGVGGGLLENANPLIYQRSGERPVTAGEEDEQVPDSIDAREIFDLIRSINDPEHPLTLEELNVVEQVRVQVSDPESTVAVAFTPTIPHCSMATLIGLSIKVKLLRSLPQRFKMDVHITPGTHASEHAVNKQLADKERVAAALENTHLLEVVNQCLSARS
Co-purified with GST-tagged FnbB: could be co-purified

— patent US20100216191A1, “Method for Manufacturing a Modified Peptide” (PROCOMCURE BIOTECH GMBH, priority 2007, published 2010)
